Reference: the RNAGym collection of RNA variant scans (doi:10.7554/elife.80360)

B1: Hairpin Ribozyme (parent)
chain: GUCCUCUUUCACGUGCGCGUGAAAGAGAGAAGUGAACCAGAGAAACACACGUUGUGGUAUAUUACCUGGUA

Variants of: B1
Assay: self-cleavage, relative activity (ratio to wild type); higher = more cleavage; co-transcriptional

Variant	self-cleavage
GGCCUCUUUCACGUGCGCGUGAAAGAGAGAAAUGAACCAGAGAAACACACGUUGUGGUAUAUUACCUGGUA [U2G G32A]	0.0684
GGCCUCUUUCACGUGCGCGUGAAAGAGAGAAUUGAACCAGAGAAACACACGUUGUGGUAUAUUACCUGGUA [U2G G32U]	0.119
GGCCUCUUUCACGUGCGCGUGAAAGAGAGAACUGAACCAGAGAAACACACGUUGUGGUAUAUUACCUGGUA [U2G G32C]	0.155
GGCCUCUUUCACGUGCGCGUGAAAGAGAGAAGUGAACCGGAGAAACACACGUUGUGGUAUAUUACCUGGUA [U2G A39G]	0.179
GGCCUCUUUCACGUGCGCGUGAAAGAGAGAAGUGAACCUGAGAAACACACGUUGUGGUAUAUUACCUGGUA [U2G A39U]	0.162
GGCCUCUUUCACGUGCGCGUGAAAGAGAGAAGUGAACCAGAGAAGCACACGUUGUGGUAUAUUACCUGGUA [U2G A45G]	0.118
GGCCUCUUUCACGUGCGCGUGAAAGAGAGAAGUGAACCAGAGAAACACACGUUGUGGUAUAUUACCGGGUA [U2G U67G]	0.194
GGCCUCUUUCACGUGCGCGUGAAAGAGAGAAGUGAACCAGAGAAACACACGUUGUGGUAUAUUACAUGGUA [U2G C66A]	0.147
GGCCUCUUUCACGCGCGCGUGAAAGAGAGAAGUGAACCAGAGAAACACACGUUGUGGUAUAUUACCUGGUA [U2G U14C]	0.277
GGCCUCUUUCACGUGCGCGUGAAAGAGAGAAGUGAACCAGAGAAAGACACGUUGUGGUAUAUUACCUGGUA [U2G C46G]	0.12
GGCCUCUUUCACGUGCGCGUGAAAGAGAGAAGUGAACCAGGGAAACACACGUUGUGGUAUAUUACCUGGUA [U2G A41G]	0.38
GGCCUCUUUCACGUGCGCGUGAAAGAGAGAAGUGAACCAGAGAAACACACGUUGUGGUAUAUUACCUGGUA [U2G]	0.348
GGCCUCUUUCACGUGCGCGUGAAAGAGAGAAGUGAACCAGAGAAACACAAGUUGUGGUAUAUUACCUGGUA [U2G C50A]	0.15
GGCCUCUUUCACGUUCGCGUGAAAGAGAGAAGUGAACCAGAGAAACACACGUUGUGGUAUAUUACCUGGUA [U2G G15U]	0.395
GGCCUCUUUCACGUCCGCGUGAAAGAGAGAAGUGAACCAGAGAAACACACGUUGUGGUAUAUUACCUGGUA [U2G G15C]	0.342
GGCCUCUUUCACGUGCGCGUGAGAGAGAGAAGUGAACCAGAGAAACACACGUUGUGGUAUAUUACCUGGUA [U2G A23G]	0.318
GGCCUCUUUCACGUGCGCGUGACAGAGAGAAGUGAACCAGAGAAACACACGUUGUGGUAUAUUACCUGGUA [U2G A23C]	0.289
GGCCUCUUUCACGUGCGCGUGAAAAAGAGAAGUGAACCAGAGAAACACACGUUGUGGUAUAUUACCUGGUA [U2G G25A]	0.224
GGCCUCUUUCACGUGCGCGUGAAAUAGAGAAGUGAACCAGAGAAACACACGUUGUGGUAUAUUACCUGGUA [U2G G25U]	0.359

Variant	self-cleavage
GGCCUCUUUCACGUGCGCGUGAAAGAGAGAAGUGAACCAGAGAAACACACGUUGUGGUAUAUUACCUAGUA [U2G G68A]	0.166
GGCCUCUUUCACGUGCGCGUGAAAGAGAGAAGUGAACCAGAGAAACACACGUUGUGGUAUAUUACCUCGUA [U2G G68C]	0.135
GGCCUCUUUCACGUGCGCGUGAAAGAGAGAAGUGAACCAGAGAAACACACGUUGUGGUAUAUUACCUUGUA [U2G G68U]	0.2
GGCCUCUUUCACGUGCGCGUGAAAGAGGGAAGUGAACCAGAGAAACACACGUUGUGGUAUAUUACCUGGUA [U2G A28G]	0.138
GGCCUCUUUCACGUGCGCGUGAAAGAGUGAAGUGAACCAGAGAAACACACGUUGUGGUAUAUUACCUGGUA [U2G A28U]	0.32
GGCCUCUUUCACGUGCGCGUGAAAGAGAGAAGUGAACCAGAGAAACACACGUGGUGGUAUAUUACCUGGUA [U2G U53G]	0.267
GGCCUCUUUCACGUGCGCGUGAAAGAGAGAAGUGCACCAGAGAAACACACGUUGUGGUAUAUUACCUGGUA [U2G A35C]	0.477
GGCCUCUUUCACGUGCGCGUGAAAGAGAGAAGUGGACCAGAGAAACACACGUUGUGGUAUAUUACCUGGUA [U2G A35G]	0.213
GGCCUCUUUCACGUGCGCGUGAAAGAGAGAAGUGAACCAGAGAUACACACGUUGUGGUAUAUUACCUGGUA [U2G A44U]	0.0754
GCCCUCUUUCACGUGCGCGUGAAAGAGAGAAGUGAACCAGAGAAACACACGUUGUGGUAUAGUACCUGGUA [U2C U62G]	0.0944
GGCCUCUUUCACGUGCGCGUGAAAGAGAGAAGUUAACCAGAGAAACACACGUUGUGGUAUAUUACCUGGUA [U2G G34U]	0.984
GGGCUCUUUCACGUGCGCGUGAAAGAGAGAAGUGAACCAGAGAAACACACGUUGUGGUAUAUUACCUGGUA [U2G C3G]	0.785
GGCCUCUUUCACGUGCGCGUGAAAGAGAGAAGUGAACCAGAGAAACACACGUUUUGGUAUAUUACCUGGUA [U2G G54U]	0.128
GGCCUCUUUAACGUGCGCGUGAAAGAGAGAAGUGAACCAGAGAAACACACGUUGUGGUAUAUUACCUGGUA [U2G C10A]	0.258
GGCCUCUUUCACGUGCGCGUGAAAGAGAUAAGUGAACCAGAGAAACACACGUUGUGGUAUAUUACCUGGUA [U2G G29U]	0.137
GGCCUCUUUCACGUGCGCGUGAAAGAGAGAAGUGAACCAGAGAAACACACGUUGUGGUAUAUUACCUGGUU [U2G A71U]	0.283
GGCCUCUUUCACGUGCGCGUGAAAGAGAGAAGUGAACCAGAGAAACACACGCUGUGGUAUAUUACCUGGUA [U2G U52C]	0.346
GGCCUCUUUCACGUGCGCGUGAAAGAGAGAAGUGAACCAGAGAAACACACGAUGUGGUAUAUUACCUGGUA [U2G U52A]	0.33
GGCCUCUUUCACGUGCGCGUGAAAGAGAGAAGUGAACCAGAGAAACACACGGUGUGGUAUAUUACCUGGUA [U2G U52G]	0.458
